Here are results for one substance from US20240343802A1.

The target of the test is CD3 on CD3-expressing T cells (Jurkat, HPB-ALL) (UniProt P07766). The experiment in a line: FACS, HBP-ALL T cells. Also on record: Bmax: unit not given here.

As for OKT3 (commercial anti-CD3 antibody), the Bmax turned out to be 13300 and the Kd is 0.461 nM.
